Assay results reported in paper PMC6742648, “A potent broadly neutralizing human RSV antibody targets conserved site IV of the fusion glycoprotein” (Nature Communications, 2019).

How the values were obtained:
[1] = target: T1, stabilized pre-fusion RSV F glycoprotein (DS-Cav1) (Human respiratory syncytial virus A, …, stabilised); experiment: cell-based or functional assay
[2] = target: T1, stabilized pre-fusion RSV F …; experiment: SPR; Biacore T200; D25 antibody on Protein A chip captures 50 RU DS-Cav1; RB1 Fab flowed in two-fold dilutions 0.31-20 nM, 50 ul/min; 1:1 Langmuir fit; settings: both partners purified
[3] = target: T2, post-fusion RSV F glycoprotein (F∆FP) (Human respiratory syncytial virus A, …, stabilised); experiment: SPR; Biacore T200; Synagis antibody on Protein A chip captures 50 RU post-fusion F; RB1 Fab flowed in two-fold dilutions 200-3.12 nM, 40 s dissociation; 1:1 Langmuir fit; settings: both partners purified
T2 construct: RSV fusion (F) glycoprotein, soluble post-fusion form F∆FP; post-fusion F structure PDB 3RRR; also called post-fusion F protein; RSV F post-Fusion; source: Expi293F, transfected, purified from culture supernatant (Ni-Sepharose, Strep-Tactin, thrombin digestion, Superdex 200)

| Binder | microneutralization of RSV A (Long) on HEp-2 cells, IC50 (F on the virus, strain Long) [1] [ng/mL] | microneutralization of RSV B (Washington) on HEp-2 cells, IC50 (F on the virus, subtype B strain) [1] [ng/mL] | Kd [2] [nM] | koff [2] [s⁻¹] | kon [2] [M⁻¹ s⁻¹] | Kd [3] [nM] | koff [3] [s⁻¹] | kon [3] [M⁻¹ s⁻¹] |
| --- | --- | --- | --- | --- | --- | --- | --- | --- |
| RB1, fully human IgG1 monoclonal antibody (antibody, V domains shown) VH: EVQLVESGGGLVRPGRSLRLSCTVSGFSFDDSAMSWVRQAPGKGLEWISFIKSKTYGGTKEYAASVKGRFTISRDDSKNIAYLQMNSLKTEDTAVYYCTRGAPYGGNSDYYYGLDVWGQGTTVTVSS VL: DIQMTQSPSSLSASVGDRVTITCRTSQDVRGALAWYQQKPGKAPKLLIFDASSLETGVPSRFSGSGSGTVFTLTISSLQPEDFAAYYCQQFLDFPFTFGQGTRLEIK | 2.9 | 1.7 |  |  |  |  |  |  |
| RB1 fragment antigen-binding (Fab) (Fab, V domains shown, Fab heavy chain of RB1 (VH as the heavy chain of m1, plus CH1 of human IgG1 up to the cleavage site); light chain of RB1, as the light chain of m1; The preparation of the Fab is told for the crystallisation; also called RB1 Fab; monovalent RB1 Fab; source: RB1 mAb (CHO-3E7, Protein A purified) cleaved into monovalent Fab with the Fab Preparation Kit (Pierce)) VH: EVQLVESGGGLVRPGRSLRLSCTVSGFSFDDSAMSWVRQAPGKGLEWISFIKSKTYGGTKEYAASVKGRFTISRDDSKNIAYLQMNSLKTEDTAVYYCTRGAPYGGNSDYYYGLDVWGQGTTVTVSS VL: DIQMTQSPSSLSASVGDRVTITCRTSQDVRGALAWYQQKPGKAPKLLIFDASSLETGVPSRFSGSGSGTVFTLTISSLQPEDFAAYYCQQFLDFPFTFGQGTRLEIK |  |  | 0.022 | 0.000164 | 7.35e+06 | 135 | 0.15 | 1.12e+06 |
